Patent US20100137214

T1: GSTcle3HV3
T1 chain: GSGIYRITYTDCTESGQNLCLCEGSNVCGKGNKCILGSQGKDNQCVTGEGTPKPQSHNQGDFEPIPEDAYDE

B1: plasmin (protein)
chain: KVYLSECKTGNGKNYRGTMSKTKNGITCQKWSSTSPHRPRFSPATHPSEGLEENYCRNPDNDPQGPWCYTTDPEKRYDYCDILECEEECMHCSGENYDGKISKTMSGLECQAWDSQSPHAHGYIPSKFPNKNLKKNYCRNPDRELRPWCFTTDPNKRWELCDIPRCTTPPPSSGPTYQCLKGTGENYRGNVAVTVSGHTCQHWSAQTPHTHNRTPENFPCKNLDENYCRNPDGKRAPWCHTTNSQVRWEYCKIPSCDSSPVSTEQLAPTAPPELTPVVQDCYHGDGQSYRGTSSTTTTGKKCQSWSSMTPHRHQKTPENYPNAGLTMNYCRNPDADKGPWCFTTDPSVRWEYCNLKKCSGTEASVVAPPPVVLLPDVETPSEEDCMFGNGKGYRGKRATTVTGTPCQDWAAQEPHRHSIFTPETNPRAGLEKNYCRNPDGDVGGPWCYTTNPRKLYDYCDVPQCAAPSFDCGKPQVEPKKCPGRVVGGCVAHPHSWPWQVSLRTRFGMHFCGGTLISPEWVLTAAHCLEKSPRPSSYKVILGAHQEVNLEPHVQEIEVSRLFLEPTRKDIALLKLSSPAVITDKVIPACLPSPNYVVADRTECFITGWGETQGTFGAGLLKEAQLPVIENKVCNRYEFLNGRVQSTELCAGHLAGGTDSCQGDSGGPLVCFEKDKYILQGVTSWGLGCARPNKPGVYVRVSRFVTWIEGVMRNN

How the values were obtained:
[1] = tested on: C-terminally His-tagged hirudin variant 3 (HV3)
Chain of C-terminally His-tagged hirudin variant 3 (HV3) (chain, as listed by the source mutant): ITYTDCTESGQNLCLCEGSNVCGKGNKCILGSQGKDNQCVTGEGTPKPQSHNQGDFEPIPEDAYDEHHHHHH

HSACHV3 [2] = tested on: HSACHV3
AGPCHV3 = AGPCHV3 (UniProt P02763)
GSTcle3HV3 = target: T1, GSTcle3HV3
HSACHV3 [3] = target: HSACHV3; remark: listed apart in the source

Chain of AGPCHV3, P02763 (P02763 whole entry, looked up, the tested form may be a part): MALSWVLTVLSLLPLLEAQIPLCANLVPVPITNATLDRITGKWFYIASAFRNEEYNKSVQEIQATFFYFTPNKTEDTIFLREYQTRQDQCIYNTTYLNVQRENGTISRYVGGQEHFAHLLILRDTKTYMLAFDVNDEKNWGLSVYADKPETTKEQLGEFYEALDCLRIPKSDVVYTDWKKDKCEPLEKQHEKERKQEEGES

Molecule	rate of thrombin-mediated chromogenic substrate cleavage, end value after 1500 nM HSACHV3 was combined with 600 nM plasmin (HV3 released) [1]	rate of thrombin cleavage of a chromogenic substrate, fusion protein 376 nM without plasmin (HSACHV3 [2])	rate of thrombin-mediated chromogenic substrate cleavage, starting value for 1500 nM HSACHV3 (HSACHV3 [2])	% thrombin activity (chromogenic substrate) after reaction of HSAHV3 with plasmin (HSAHV3)	rate of thrombin cleavage of a chromogenic substrate, fusion protein 376 nM without plasmin (AGPCHV3)	cleavage pattern by SDS-PAGE after plasmin digestion (GSTcle3HV3)	time- and plasmin-dependent cleavage, Coomassie-stained SDS gel (4000 nM AGPCHV3, 600 nM plasmin) (AGPCHV3, P02763)	cleavage by plasmin, SDS-PAGE and autoradiography (HSACHV3 [3])	time- and plasmin-dependent cleavage, Coomassie-stained SDS gel (1500 nM HSACHV3, 600 nM plasmin) (HSACHV3 [3])
human α-thrombin	The former reduced the rate of thrombin-mediated chromogenic substrate cleavage from 89.9% to 5.5%	In the absence of plasmin, neither fusion protein had substantial effects upon the thrombin activity	The former reduced the rate of thrombin-mediated chromogenic substrate cleavage from 89.9% to 5.5%	thrombin inhibition was unaffected by the presence of HSAHV3 following reaction with plasmin	In the absence of plasmin, neither fusion protein had substantial effects upon the thrombin activity	–	–	–	–
B1	–	–	–	–	–	plasmin-dependent polypeptide species were detected, one of which co-migrated with unfused GST, and the other, which migrated slightly more rapidly than Pichia pastoris-derived recombinant hexahisitidinylated HV3	A time- and plasmin-dependent cleavage pattern of both proteins is shown, yielding a single product for HSACHV3 and two products for AGPCHV3	HSACHV3 was cleaved by plasmin over time, reaching near complete conversion	A time- and plasmin-dependent cleavage pattern of both proteins is shown, yielding a single product for HSACHV3 and two products for AGPCHV3
